Measured values taken from patent CN116836274A (DONGGUAN PENGZHI BIOTECHNOLOGY CO LTD, dated 2023).
Residue numbers refer to the chain shown, from its start.

T1: 血清淀粉样蛋白A (Serum amyloid A, SAA), 购自Yashraj biotechnology limited, 货号FRSAA-61 (UniProt P0DJI8 19-122, limits assumed)
T1 construct: Bought antigen
T1 sequence (looked up): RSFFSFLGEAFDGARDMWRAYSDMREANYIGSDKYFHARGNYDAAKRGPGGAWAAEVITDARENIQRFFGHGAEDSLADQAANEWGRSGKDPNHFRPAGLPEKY

B1: Anti-SAA-11A4mut1 (antibody, mouse IgG1, kappa, V domains shown)
VH: QVQLQQSGAELVRPGVSVKISCKGSGYTFTDYAMHWVKQSHAKSLEWIGVINTYYGDASYNQKFKGKATMTEDKSSSTVYMELARLTSEDSAIYYCARGSSIMITSWFAYWGQGTLVTVSA
VL: DIQMTQSPASLSASVGETVTITCRASENIYSYLAWYQQKQGKSPQLLVYNAKTLAEGVPSRFSGSGSGTQFSLKINSLQPEDFGSYYCQHHYGTPLTFGTGTKLELKR
B2: Anti-SAA-11A4mut3 (antibody, V domains shown)
VH: B1 VH
VL: B1 VL with L96I
B3: Anti-SAA-11A4mut2 (antibody, mouse IgG1, kappa, V domains shown)
VH: B1 VH with I102L
VL: B1 VL

Legend:
[1] = target: 血清淀粉样蛋白A (Serum amyloid A, SAA), 购自Yashraj biotechnology limited, 货号FRSAA-61 (UniProt P0DJI8); assay: biosensor with AMC sensors, antibody captured at 10 ug/ml, SAA in a dilution series in PBST
[2] = target: T1, 血清淀粉样蛋白A (Serum amyloid A, SAA), …; assay: as above

Molecule	Kd [1] [nM]	koff [1] [s⁻¹]	kon [1] [M⁻¹ s⁻¹]	Kd [2] [nM]	koff [2] [s⁻¹]	kon [2] [M⁻¹ s⁻¹]
对照 (antibody)	9.01	0.000219	24300	–	–	–
B1	–	–	–	0.0322	1.12e-06	34800
B2	–	–	–	0.0386	1.3e-06	33700
B3	–	–	–	0.827	3.05e-05	36900
